From a protein production outcome set (Wang et al. 2014)

Assay: label from the status in PepcDB records
With “MAEVTGVRALTGAALDAALEDVARLRIAVFRAWPYLYDGDLDYERDYLQAYRNSDRAIVVGAFDGDRLIGASTGMPLADHADDFAAAFADSGLALDQVFYCAESVLLPDYRGHGVGHRFFDLREGHARALGFAKCAFCGVQRPADHPLKPDSYRPLDAFWRARGYEKLPGAVAHFSWKDLDQENETDKPLQFWIRDL” the protein production was “failed”. For “MAFTESDVYNNTAFFEQYMKRRYRENSPNESIEKPVFFQLIGHVQGKQILDLGCGDAKFGAELLEKGCYSYTGIEGSELMYEKAKKQLENKNGSVHFLNLKDYTYPSSTFDLVTSRLALHYIEHLDTIFQNVFQTLKTNGTFTFSVQHPVITSSFESLQTSGKRTIWLVDDYFKLGKRVEPWIDQEVIKYHRTTEEYFTLLQQAGFTITSLKEATPNPTYFQDEEEYKRRLRIPLFLLFSCTK”, the protein production was “failed”. With “MAGALITASAACAEDAPDFRLDLDTGGHTARIARLAFTPDGEDIVSASDDKTIRIWDWQSGVTLRTIRGYLGNGSDGKIFAVSVSPDGKTIAAGGYFGAGLGDKPPYGDIRLFDFATGKMKAVLRAADYATYDLAFSPDGKTLAAGGGDGMVYLWRLDDKSATGWTLDKKLDADSWHIDKLAFAAAGTRLAATTTDNGIRLWDVAKGEEIALPDEAEPLRDVSVLALAISQDGSLFATGSKDGQVQLWRAADGTLVHAMPKQDFLIGSLTFAKGSRLVASCGYRCADKHRSIVWNTDSGEKLLDYSGHDGTVYASAANADGSLVATAGGTRNAIQVWDPATGERKALLQGVGEPVTAIGIDAANGIIAWGNTNPCPERVACPEQLGALDKRLELPTTERFFDDPQPLTEPGSFARAAQSDGEWSLHATKGGKDALENAVLEIANGGKVVRSIENDATNGFAHSAFTLIDNGLGLITGGNDGTLLEYKAATARVSGEFTGHTGEINAMAASEKAGLLVTGSADQTLRLWNLKTHELIVSMFFAGPQWIAWMPQGYYYSSDEGDKLIGWHVNQGRDHEGRFIRAGQLKKYLWSPEMVRRAIILRSAKQAVKEMRPGVDNELQKLLQRKPPEFGVRLADDQSKVRDGYVAVEITGAKEAGTDVAGFSILSNSRNVGDIATRSAEGDKTTVEVPVENGQNTIRITGTNEYGYLTERSVTALARKTEKAEAKGKLYVAVIGVDKYPFLTDACSGHACDLRYPVDDATEFLEVVAQKSAPLFSSMETLVLVNREALDESPDKAKQTYTVASADNIMEPDSHTIDDQLADFLDRPGEHDTTIVFVAGHGINIDEDYYFIPTDGRKQDADRWKRSSLVDWGDIQKSVERAKGMRFMLLDTCHAANAFNPRLEKDAQDARIVVFSATAANNTAAELPELGHGVFTYSILEGLRGKARTSDGGITLFGLADFISHEVVRLTASKQKPFYYVGGVENIVLAEP” the protein production was “failed”. With “MAGAMRKMAVYLGLVEDDGYDGRGFDPDDDFEPELDPEPERDHRRHEPAHQSHGAHQSQRDEEVRVVQPPAQREPMPRAASLAAESSRPARIAPVASITQERASLEKSAPVIMPKVVSEREPYRITTLHPRTYNEARTIGEHFREGTPVIMNLTEMDDTDAKRLVDFAAGLVFGLHGSIERVTQKVFLLSPANVDVTAEDKARIAEGGFFNQSLEHHHHHH” the protein production was “failed”. With “MAGASVAATTLKGDTSLLAGGAIRGAINAFGKDKKLKTQLASSGKLYGKYAKAASKIENLVLGGENISLVVDPP” the protein production was “failed”. In the case of “MAGCGANDTSSTKEKASSEKSGVTKEITASVNKMETIISKLNDSVEKGDQKEIEKKGKELNSYWLSFENDIRSDYPFEYTEIEKHLQPIYTEAQKDKPDAGKIKTESESLKASLEDLTEAKKSGKKASDQLAKAADEYKGYVKEQSDQLVKATEAFTGAVKSGDIEKSKTLYAKARVYYERIEPIAESLGDLDPKIDARENDVEEGDKWTGFHKLEKAIWKDQDISGEKATADQLLKDVKELDGSIQSLKLTPEQIVAGAMELLNEAGISKITGEEERYSRIDLVDLMANVEGSEAVYQTVKSALVKDHSDLTEKLDTEFSEFEVLMAKYKTNDQSYTSYDKLSEKQIRELSTKLTTLSETMSKIANVLLEHHHHHH”, the protein production is reported as “not failed”. With “MAGDVEGFCSSIHDTSVSAGFRALYEEGLLLDVTLVIEDHQFQAHKALLATQSDYFRIMFTADMRERDQDKIHLKGLTATGFSHVLQFMYYGTIELSMNTVHEILQAAMYVQLIEVVKFCCSFLLAKICLENCAEIMRLLDDFGVNIEGVREKLDAFLLDNFVPLMSRPDFLSYLSFEKLMSYLDNDHLSRFPEIELYEAVQSWLRHDRRRWRHTDTIIQNIRFCLMTPSSVFEKVGTFESDRQDSSI” the protein production was “failed”. For “MAGDYHRGEMDIQEQAATYDAFGKMTKWGSLAISVLLLFFTLLFCTSAGFIGSAIASIVLLVLGVVLLKEKPTQSH”, the protein production was “failed”. For “MAGENSDNEPSSPASPSSAGFNTDQLPISTSQNSENFSDEEEAAVDTQVIRDEPDEAEDEEEEEGEDLFNDTFMNDYRKMDENDQYESNGIDDSVDDERDLGQAMLDRRAADADLDARENRLANRKLPHLLHDNDSDDWNYRPSKRSRTTVPPRGNGGDPDGNPPSSPGVSQPDISMTDQTDDYQDEDDNDDEAEFEMYRIQGTLREWVMRDEVRRFIAKKFKDFLLTYVKPKNENGDIEYVPNKCSLEIDYKEFIHVHPNIAIWLADAPQPVLEVMEEVSEKVIFDLHPNYKNIHTKIYVRVTNLPVNDQIRNIRQIHLNTMIRIGGVVTRRSGVFPQLQQVKYDCNKCGAVLGPFFQNSYSEVKVGSCSECQSKGPFTVNVEQTIYRNYQKLTIQESPGTVPAGRLPRHKEVILLNDLIDCARPGEEIEVTGIYTNNFDLSLNTKNGFPVFATVVEANYVTKKQDLFSAYKLTQEDKTQIEELSKDPRIVERIIKSIAPSIYGHEDIKTALALAMFGGQEKNIKGKHRLRGDINVLLLGDPGTAKSQFLKYVEKTGQRAVYTTGKGASAVGLTAAVHKDPVTREWTLEGGALVLADRGICLIDEFDKMNDQDRVSIHEAMEQQSISISKAGIVTSLQARCSVIAAANPVGGRYDSSKSFAQNVELTDPILSRFDILCVVKDVVDPVTDEMLAEFVVNSHFKSQPKGGKMEDSDPEDGIQGSSGSTDPEVLPQNLLKKYLTYSKLYVFPKLGELDAKKLETVYANLRRESMNGQGVSIATRHLESMIRMSEAHARMHLRQYVTEEDVNMAIRVLLDSFISTQKFGVQRTLRESFKRYITYKKDFNSLLLVLLKELVKNALKFEEIISGSNSGLPTIEVKIEELQTKAKEYDIADLRPFFSSTDFSKAHFELDHGRGMIKCPKRLITW”, the protein production was “failed”. For “MAGFMKNAMSYLGMSDVVDDEDDYIEEDEEQKPASKSAFDSDHTVTPLASTTAPAASSTTKPFPGGRVNRITTIHPKSYEDAQLVGRALRDGVPVVLNLTGVAEAVAYRIVDFSAGVVFGVRGSLERVTPRVFLLSPAQVNIKVEEPTKPASAHDLFADLEHHHHHH”, the protein production was “failed”. For “MAGFVPLRWPISRMSSAVPRYIVGIDLGTTHTVVSYADGGDPSRIEPLFLEQLVAPGQVAGRPLLPSVRYHPATGELAEADTALPWPVEETAPGCRPVIGEFARQLGSRSRGRLVASAKSWLCHTGVDRTADILPWGAPDEVPKVSPVEASASFLRHVRCAWNHRFPAHPLETQDVIVTIPASFDDAARALTVEAARRAGLANVRLLEEPQAACYDFLWTYRGRLAETLEGVNLLLVCDVGGGTTDFTLIRVDAGGSEPELERIAVGNHLMLGGDNIDLTLAHRLEPRLTGAERSLSATDLILLAEQCRRAKETLLAEQGPESVTVTLLGKGGGLIGGARSVELSRHEVLEVVLDGFFPRVGADAVPERRSGVVEFGLPYAADPAITRHAAAFLIRHRNDAGGAAPDALLLNGGVFHSPVIAGRMAEVVGSWCGRTPVMLRNPRPDQAVAFGAVAFGLSRRGLAVRRIGGGSARAYYLLVGDANERSRRGVCILPRGAAEGQEWTVERRNFLLSVGRPVRFHVFSSTVDSGHAPGDLAVLDEAGFGELPPLAVALQAQEQGDVEVRLAARLTAIGTLQLQCVAVGDPEQRWDLELQLRGGGPRPTASASLHPRAAEAQEHIGLIFGKKTRQFGPKAVKTLRNDLEKILGKREDWDTALCRELYAALLEGAPHRRRSADHERLWLSLAGYCLRPGFGAPLDDWRVGQVWNLYSQGLQFVNEAQNWSEWWIVWRRIAGGLRAEAQQRLFADVAGFIDPVRARRGNAEALAKKRAFEDMVRLAASLERLSAGDKTMLGGWLVQRLDKAPDSAELWWALGRVGARAPFHGSAHNLVAREVVEDWVELALQRDWKRQGFVAFAATLLARLTGDRERDLDATLRNRVAEKLVASSAPEIWLELVTEVRGLDASDEKRIFGEGLPPGLRLVDSAWGALEHHHHHH”, the protein production was “failed”. In the case of “MAGGHCGSFAAAAASSGEIVQLNVGGTRFSTSRQTLMWIPDSFFSSLLSGRISTLRDETGAIFIDRDPAAFAPILNFLRTKELDLRGVSINVLRHEAEFYGITPLVRRLLLCEELERSSCGSVLFHGYLPPPGIPSRKGTNTARSSVDARNGLSSMEGEARGSGTQPVLAGNGEDTIRLVDKLSVESWPVGVPVDPRKVLIVAGHHNWIVAAYAHFAVCYRIKESSGWQQVFTSPYLDWTIERVALNAKVVGGPHGDKDKMVAVASESSIILWSVQDGGSGSEIGVFSLGVPVDALFFIGNQLVATSHTGKVGVWNAVTQHWQVQDVVPITSYDTAGSFLLLGCNNGSIYYIDMQKFPLRMKDNDLLVTELYHDPSNDAITALSVYLTPKTSVSGNWIEIAYGTSSGAVRVIVQHPETVGSGPQLFQTFTVHRSPVTKIMLSEKHLVSVCADNNHVRTWTVTRFRGMISTQPGSTPLASFKILSLKRQRATAAIPLEMTSGLLENEMINKCLSRRLFPSPTSCLSGCHRLEKGYVRSRLWTALQSPRSLXESARAPAGWAPGQGATCSLATPTAASRCGTXPQPWTWSTRARTRTQAAPLRKSCSSCWTSVIXARPAAPRPTSALPPLCSSTAAFVSPAPAFSSSTTKPSMKQQPMVPRGLTERALCXPEQGGLRASTATGTCRLSISTELXRELSLRMVTRAQPRLRQKGQQQGSVLCVRGSPRGQREDVXGSPMWAXTCTDQRKVCQSPRKGQQRMKMSPKWSSGRKDSKQGDSLEERKFPIWHPHQVPLMEGPTPLVQHPRLQLRPLRHLGTERATPLARSTAC”, the protein production is reported as “failed”. In the case of “MAGKEFKQRIRQALNNASLRGALGRFADSYVVSREEVYAGRDFESLRQRIAAIKADAAGRYEELADRFSRAVEARGGKVFRAKDAAAAREYIYQVAKEHGVTEIVKSKSFASEEIHLNEFLQERGINPYETDLAEWILQLMPGERPSHMVMPAIHLPKEEVARVFSRYLGEPVEPDIKNMVRIARRELRKKFLTAGMGISGANIAVAETGTIVLCTNEGNARLTTTVPPVHVAIVGYEKLVPSIKDIVPILEALPRSGTAQPITSYVTMITGPVPAWRGEGEGIKELHVVLLDNGRTRMAADPVFKEALQCIRCASCTNVCPVFQLVSGQVYGYIYNGGIGSVLTAFFNSLEDAVDPQSLCIGCRRCAEVCPAKINIPDLVLKLRERVVTKQGLSSGYRIALHGIVAKPKLMHTLLRAASRLQGPVTHGQPLIRHLPLFFSNLTSGRSLPAIAKEPLRDRVKRLEARTGRPRLKAAFYSGCVIDFAYPEIGEAVYKVLGREGVQVTFPQGQACCGAPAVYAGDRETAVKLAKQNITALEEARADVVVTACPTCAVALKKDFPELLAGEPAWEERARALAKKVKDFTELVHELTGGQGKKVKQAKKSGSGAVKVTYHDSCHFKRHLGLDQVARQVLKEQPGVELVEMQESDRCCGFGGSYSIKYPEISAPILERKLKNITESGAQVVAADCPGCVLQLRGGLDQKGSSIKVKHTAEVLAALENLQGGGNSK”, the protein production is reported as “failed”. For “MAGKKVVITIGRQYGSGGADTGRRLAEELGFGFYDKNILRMNSDESGIKESYFHLADEKAGNKLLYKIISSLTPEKGAPSFGSDLISADNLFRFQSEVIRKLAAEESCVIIGRCANYVLDGMEGLLRVYLYADIEVREARIREKDLYDEKEVLKNIKRIDRERRDYHRYYTGRDWQELDNYDLVINTTHIGVDGAVAVIKNYLTVMGYDLEKDFH”, the protein production was “not failed”.
